Test results taken from patent US20220064332A1 (INSERM INSTITUT NATIONAL DE LA SANT ET DE LA RECHERCHE M …, published 2022).

How the values were obtained:
[1] = target: T1, human 52-kDa pro-cath-D secreted from MDA-MB-231 cells (human, UniProt P07339 21-412); assay: sandwich ELISA: M2E8 capture of pro-cath-D from MDA-MB-231 conditioned medium, serial dilutions of IgG, anti-human Fc-HRP
T1 construct: domain: 52-kDa pro-cath-D; Captured from conditioned medium by the M2E8 antibody in the sandwich ELISA; also called secreted human 52-kDa pro-cath-D
Method: Cells were cultured in DMEM with 10% fetal calf serum (FCS, GibcoBRL). To produce conditioned medium, cells were grown to 90% confluence in DMEM medium with 10% FCS, and conditioned medium was centrifuged at 800×g for 10 min. For sandwich ELISA, 96-well plates were coated with M2E8 antibody in PBS (500 ng/well) at 4° C. overnight. After blocking non-specific sites with PBST/1% BSA, conditioned medium was added at 4° C. for 2 h. […] Cath-D was quantified in TNBC cytosols by sandwich ELISA, as described above, after coating with the D7E3 antibody in PBS (200 ng/well) and with the M1G8 antibody conjugated to HRP (1/80), and using recombinant pro-cath-D (1.25-15 ng/ml) for reference (6). TNBC cytosols were previously prepared and frozen (25). GST-cath-D fusion proteins were produced in the E. coli B strain BL21 as described (9).

[2] = target: T2, 14-kDa light chain GSTcath-D (UniProt P07339 65-162, limits assumed); assay: immunoprecipitation of GST-cath-D fusion fragments
T2 construct: domain: 14-kDa light chain; Produced in E. coli BL21
T2 sequence (P07339 65-162 limits assumed): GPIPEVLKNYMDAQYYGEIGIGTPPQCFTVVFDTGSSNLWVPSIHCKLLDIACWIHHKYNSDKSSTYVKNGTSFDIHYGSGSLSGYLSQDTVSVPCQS

[3] = target: T3, 4-kDa GST-cath-D pro-fragment (UniProt P07339 21-64, limits assumed); assay: immunoprecipitation of GST-cath-D fusion fragments
T3 construct: domain: 4-kDa pro-fragment; Produced in E. coli BL21
T3 chain (looked up): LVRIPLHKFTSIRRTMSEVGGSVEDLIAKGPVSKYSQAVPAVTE

- EC50 [1]: 1.2 nM
- binding result [2]: no binding
- binding result [3]: no binding
B1: anti-cath-D antibody E2 (fully human IgG1λ) (antibody, V domains shown)
VH: EVQLVESGGSLVKPGGSLRLSCAASGFTFSNSYMNWVRQAPGKGLEWISYISGSSRYISYADFVKGRFTISRDNATNSLYLQMNSLRAEDTAVYYCVRSSNSYFGGGMDVWGRGTLVTVSS
VL: QSVLTQPASVSGSPGQSITISCAGTSSDVGGSYGVSWYQQHPGKAPKLMIYGDSYRPSGVSNRFSGSKSGNTASLTISGLQAEDEADYYCSSYTNYSTRVFGGGTKLAVL
